Data from the Human Domainome abundance scans (Beltran et al. 2025).
± gives the uncertainty stated by the source.

B1: POU domain, class 3, transcription factor 4, residues 280 to 335; numbered along this chain, P49335 (parent)
chain: KKRTSIEVSVKGVLETHFLKCPKPAAQEISSLADSLQLEKEVVRVWFCNRRQKEKR

Variants of: B1
Test: abundance fitness (aPCA) (normalised: wild type 0, dead -1); higher = more abundant; growth selection in yeast, the domain comes from the species named
Details: Homo sapiens

Abundance fitness: each site, then its substitutions
L36: G -0.703 ± 0.33, E -0.781 ± 0.39
E39: Q -0.522 ± 0.41, K -0.583 ± 0.34, G -0.686 ± 0.16, A -0.515 ± 0.21, R -0.572 ± 0.12, V -0.565 ± 0.18, W -0.746 ± 0.21, H -0.551 ± 0.43, N -0.134 ± 0.25, M -0.478 ± 0.29, D 0.122 ± 0.17, C -0.411 ± 0.19, F -0.735 ± 0.34, P -0.022 ± 0.17, S -0.074 ± 0.12, T -0.421 ± 0.26, I -0.456 ± 0.25
Q37: G 0.177 ± 0.21, H 0.104 ± 0.22, S -0.081 ± 0.2, N 0.071 ± 0.31, V -0.923 ± 0.29, K -0.322 ± 0.48, P -0.855 ± 0.33, M -0.22 ± 0.32, F -0.615 ± 0.38, L -0.664 ± 0.29, D 0.043 ± 0.33, A -0.437 ± 0.33, R -0.21 ± 0.17, C -0.198 ± 0.27
E28: T -0.411 ± 0.17, D -0.3 ± 0.18, H -0.63 ± 0.24, Y -0.382 ± 0.21, K -0.713 ± 0.29, W -0.484 ± 0.31, F -0.732 ± 0.17, A -0.657 ± 0.14, N -0.123 ± 0.28, G -0.886 ± 0.16, V -0.398 ± 0.11, L -0.357 ± 0.13, P -0.352 ± 0.22, M -0.355 ± 0.2, S -0.692 ± 0.14, C -0.569 ± 0.19, Q -0.432 ± 0.19, I -0.47 ± 0.19
S30: I -0.148 ± 0.3, V -0.058 ± 0.11, M -0.262 ± 0.19, G -0.209 ± 0.13, E 0.215 ± 0.15, T -0.118 ± 0.17, N -0.196 ± 0.2, F -0.332 ± 0.2, H -0.706 ± 0.24, L -0.536 ± 0.16, Q -0.163 ± 0.2, K -0.003 ± 0.18, P -0.652 ± 0.24, D 0.08 ± 0.14, R -0.185 ± 0.14, C -0.396 ± 0.27
I29: S -0.762 ± 0.29
L32: V -0.625 ± 0.2, G -0.784 ± 0.22, A -0.247 ± 0.21, R -0.847 ± 0.2, W -0.614 ± 0.28, I -0.041 ± 0.48, M -0.425 ± 0.27, S -0.732 ± 0.24, P -0.176 ± 0.34, C -0.633 ± 0.25, F -0.877 ± 0.38, E -0.631 ± 0.36, Q -0.916 ± 0.35, T -0.939 ± 0.46, H -0.86 ± 0.35, N -0.785 ± 0.32
A33: L -0.598 ± 0.13, Y -0.917 ± 0.39, T -0.704 ± 0.25, W -0.835 ± 0.27, K -0.959 ± 0.41, E -0.634 ± 0.26, F -0.773 ± 0.3, N -0.964 ± 0.38, M -0.836 ± 0.38, R -0.667 ± 0.15, I -0.802 ± 0.31, D -0.96 ± 0.31, G -0.853 ± 0.2, V -1.02 ± 0.24, P -0.907 ± 0.3
L38: G -0.679 ± 0.14, T -0.607 ± 0.21, W -0.884 ± 0.21, S -0.815 ± 0.18, A -0.744 ± 0.23, I 0.048 ± 0.26, K -0.531 ± 0.29, V -0.269 ± 0.15, P -0.932 ± 0.29, E -0.729 ± 0.29, Y -0.483 ± 0.33, M -0.148 ± 0.16, C -0.656 ± 0.22, Q -0.89 ± 0.26
S31: M 0.096 ± 0.15, F -0.059 ± 0.16, T 0.035 ± 0.15, E -0.058 ± 0.22, R 0.29 ± 0.13, A 0.006 ± 0.15, H 0.219 ± 0.2, C -0.414 ± 0.32, Q -0.031 ± 0.16, N 0.182 ± 0.22, G -0.398 ± 0.13, V 0.013 ± 0.17, L -0.114 ± 0.12, P -0.913 ± 0.25, W -0.467 ± 0.2, I 0.004 ± 0.18, K 0.022 ± 0.18
K40: C -0.154 ± 0.25, A 0.026 ± 0.15
D34: S -0.317 ± 0.13, W -0.801 ± 0.16, I -0.717 ± 0.32, Y -0.793 ± 0.31, P -0.843 ± 0.29, N -0.384 ± 0.21, K 0.109 ± 0.22, G -0.537 ± 0.15, L -0.528 ± 0.13, M -0.479 ± 0.21, C -0.531 ± 0.37, A -0.254 ± 0.13, E -0.172 ± 0.18, T -0.472 ± 0.19, Q -0.183 ± 0.21, H 0.069 ± 0.2, R 0.019 ± 0.12
S35: V -0.456 ± 0.13, W -0.707 ± 0.2, G -0.638 ± 0.15, C -0.383 ± 0.17, R 0.152 ± 0.11, E 0.115 ± 0.17, F -0.249 ± 0.14, M 0.127 ± 0.17, D 0.031 ± 0.25, A 0.071 ± 0.14, Y -0.364 ± 0.17, T -0.01 ± 0.13, I -0.373 ± 0.15, N -0.45 ± 0.24, L -0.122 ± 0.11, K 0.257 ± 0.15, H 0.345 ± 0.21
Q27: W -0.295 ± 0.15
